We go through two molecules from publication PMC6760448, “The DRS–AIMP2–EPRS subcomplex acts as a pivot in the multi-tRNA synthetase complex” (IUCrJ, 2019).

Series [1] concerns the molecule itself. The series can be described thus: crystal structure; DRS–AIMP2-DX2-S34–EPRSGST (DA2E) subcomplex, 3.6 Å, space group P6_(1), two subcomplexes in the asymmetric unit; crystals at 22°C from sodium/potassium phosphate, 0.1 M CAPS pH 10.5, lithium sulfate.
Series [2] concerns the target T1, N-terminally truncated human AIMP2 splice variant lacking exon 2 (residues Ser34–Gln45 and Asp115–Lys320) (human, UniProt Q13155 34-45; Q13155 115-320).
T1 construct: human AIMP2, residues Asp115–Lys320 (exons 3 and 4, GST domain); joined directly to Gln45 as in the splice variant AIMP2-DX2 that lacks exon 2; also called AIMP2-DX2-S34; AIMP2GST; source: E. coli BL21-CodonPlus (DE3)-RIPL; culture pooled with those of the partners, co-purified (HiTrap Chelating HP, Superdex 200); not shown: His6, C-terminal, kept
T1 sequence (looked up): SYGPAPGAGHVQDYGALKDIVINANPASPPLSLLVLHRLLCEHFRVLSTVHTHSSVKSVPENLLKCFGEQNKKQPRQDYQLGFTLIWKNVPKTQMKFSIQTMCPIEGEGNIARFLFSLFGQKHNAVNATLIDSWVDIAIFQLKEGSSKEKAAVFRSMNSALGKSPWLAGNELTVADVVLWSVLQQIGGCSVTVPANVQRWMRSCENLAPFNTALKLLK
The series can be described thus: SEC; separately transformed strains pooled in one culture, proteins met on cell disruption by sonication; His6 affinity (HiTrap Chelating HP), then HiLoad 16/600 Superdex 200 pg in 50 mM HEPES–NaOH pH 8.0, 200 mM NaCl, 5 mM DTT, 1% glycerol; SDS–PAGE of the highest peak. The settings on record: partners not purified. For orientation: In gel filtration, larger molecules generally elute earlier.

B1: N-terminally truncated human aspartyl-tRNA synthetase (residues Ala21–Pro501) (enzyme, UniProt P14868 21-501, looked up)
chain: AEDYAKERYGISSMIQSQEKPDRVLVRVRDLTIQKADEVVWVRARVHTSRAKGKQCFLVLRQQQFNVQALVAVGDHASKQMVKFAANINKESIVDVEGVVRKVNQKIGSCTQQDVELHVQKIYVISLAEPRLPLQLDDAVRPEAEGEEEGRATVNQDTRLDNRVIDLRTSTSQAVFRLQSGICHLFRETLINKGFVEIQTPKIISAASEGGANVFTVSYFKNNAYLAQSPQLYKQMCICADFEKVFSIGPVFRAEDSNTHRHLTEFVGLDIEMAFNYHYHEVMEEIADTMVQIFKGLQERFQTEIQTVNKQFPCEPFKFLEPTLRLEYCEALAMLREAGVEMGDEDDLSTPNEKLLGHLVKEKYDTDFYILDKYPLAVRPFYTMPDPRNPKQSNSYDMFMRGEEILSGAQRIHDPQLLTERALHHGIDLEKIKAYIDSFRFGAPPHAGGGIGLERVTMLFLGLHNVRQTSMFPRDPKRLTP
notes: human aspartyl-tRNA synthetase (DRS), cytosolic, residues Ala21–Pro501; Homodimer in the crystal structure of the DA2E subcomplex; No removal of the His6 tag is described; also called DRS; source: E. coli Rosetta2 (DE3)pLysS; culture pooled with those of the partners, co-purified (HiTrap Chelating HP, Superdex 200); not shown: His6, N-terminal, kept
Consider B1, for which the binding result in series [1] was “binds”.

B2: C-terminally truncated human EPRSGST (Met1–Gln157) (domain or fragment, UniProt P07814 1-157, looked up)
chain: MATLSLTVNSGDPPLGALLAVEHVKDDVSISVEEGKENILHVSENVIFTDVNSILRYLARVATTAGLYGSNLMEHTEIDHWLEFSATKLSSCDSFTSTINELNHCLSLRTYLVGNSLSLADLCVWATLKGNAAWQEQLKQKKAPVHVKRWFGFLEAQ
notes: human glutamyl-prolyl-tRNA synthetase (EPRS), GST domain, residues Met1–Gln157; also called GST domain of glutamyl-prolyl-tRNA synthetase; source: E. coli BL21-CodonPlus (DE3)-RIPL; culture pooled with those of the partners, co-purified (HiTrap Chelating HP, Superdex 200); not shown: His6, C-terminal, kept
Turning to B2, the binding result in series [2] is reported as “binds”.
